Assay results from patent EP4631959A2, “NOVEL MINIGASTRIN-DERIVED CHOLECYSTOKININ 2 RECEPTOR BINDING MOLECULES FOR IMAGING AND TARGETED RADIOTHERAPY” (priority 2022, dated 2024).
Read-outs that look alike come from different tables or passages of the source. Starred links: 1 amine or outer side, 2 acyl side, 3 side chain; linkers in the order of their positions; H or OH if unused. Non-standard residues stand in square brackets, D forms with d. Residues, ends and D or L forms follow the SMILES beside them. *: point of attachment. DOTAGA = O=C(O)CN1CCN(CC(=O)O)CCN(C(CCC(=O)*)C(=O)O)CCN(CC(=O)O)CC1; X2 = O=C(O)CN1CCN(CC(=O)O)CCN([C@H](CCC(=O)*)C(=O)O)CCN(CC(=O)O)CC1; Benzoyl(4-SiFtBu2) = CC(C)(C)[Si](F)(c1ccc(C(=O)*)cc1)C(C)(C)C; DOTA = O=C(O)CN1CCN(CC(=O)O)CCN(CC(=O)*)CCN(CC(=O)O)CC1; d(γGlu) = O=C(O)[C@@H](CCC(=O)[*:2])N[*:1]; 1Nal = N[C@@H](Cc1cccc2ccccc12)C(=O)O; PEG5 = NCCOCCOCCOCCOCCOCCC(=O)O; NMeNle = CCCC[C@H](NC)C(=O)O; PEG3 = NCCOCCOCCOCCC(=O)O; Nle = CCCC[C@H](N)C(=O)O; dDap = NC[C@@H](N)C(=O)O

Experiments:
[1] = target: T1, CCK-2R (Rattus norvegicus, UniProt P30553); assay: Determination of IC50: CCK-2R affinity on AR4-2J cells, competition with [^177Lu]Lu-DOTA-PP-F11N; assay type: binding
T1 construct: The CCK-2R expressing rat pancreatic tumor cells AR4-2J; host or cells: AR4-2J rat pancreatic tumor cells
T1 sequence (P30553 1-452): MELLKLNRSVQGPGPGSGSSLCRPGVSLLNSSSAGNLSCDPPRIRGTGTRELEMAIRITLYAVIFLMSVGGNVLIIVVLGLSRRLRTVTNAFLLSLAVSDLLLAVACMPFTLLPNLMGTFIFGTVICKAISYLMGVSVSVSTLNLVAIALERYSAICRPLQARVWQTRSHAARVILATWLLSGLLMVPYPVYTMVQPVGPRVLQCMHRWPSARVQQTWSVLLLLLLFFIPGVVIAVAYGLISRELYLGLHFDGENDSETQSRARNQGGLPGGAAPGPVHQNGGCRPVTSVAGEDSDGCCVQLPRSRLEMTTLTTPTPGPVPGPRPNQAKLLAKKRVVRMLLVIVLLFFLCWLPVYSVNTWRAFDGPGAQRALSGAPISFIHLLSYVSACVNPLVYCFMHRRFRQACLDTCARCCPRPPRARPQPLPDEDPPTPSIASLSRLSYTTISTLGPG
Summary of the method: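 Competitive displacement of 0.3 pmol/well [177Lu]Lu-DOTA-PP-F11N by compounds (10^-10 to 10^-4 M) on AR4-2J cells in BSA-supplemented medium, 3 h at 37 °C. Free label was collected from medium plus PBS rinse, and cell-bound label was recovered with 1 M NaOH, both measured by γ-counter. Each IC50 was determined twice, in triplicate.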

[2] = n-Octanol-PBS distribution coefficient (logD7.4); assay type: physicochemical; conditions: pH = 7.4, ^177Lu-labeled
Protocol: Approximately 1 MBq of the labeled tracer was dissolved in 1 mL of a 1/1 mixture (v/v) of phosphate buffered saline (PBS, pH = 7.4) and n-octanol in an Eppendorf tube (1.5 mL). After vigorous mixing of the suspension for 3 min at rt, the vial was centrifuged at 9,000 rpm for 5 min (Biofuge 15, Heraeus Sepatech, Osterode, Germany) and 200 µL aliquots of both layers were measured in a γ-counter. The experiment was repeated at least five times.

[3] = read-out: IC50 [nM] (n = 3), ^natLu-labeled; AR4-2J cells; ^natLu-labeled
[4] = AR4-2J cells; ^natLu-labeled; read-out: IC50 [nM] (n = 3), ^natLu-labeled

IC50 [1, 4] [nM] | SMILES | IC50 [1, 3] [nM] | logD7.4 (n ≥ 5), ^177Lu-labeled [2] | logD7.4 (n ≥ 5), ^177Lu-labeled ([2]; listed as [^177Lu]Lu-DOTA-CCK-63)
 | CCCC[C@H](NC(=O)[C@H](Cc1c[nH]c2ccccc12)NC(=O)CNC(=O)[C@H](Cc1ccc(O)cc1)NC(=O)[C@H](C)NC(=O)CC[C@@H](NC(=O)CCCNC(=O)CC[C@@H](NC(=O)CCCNC(=O)CC[C@@H](NC(=O)CCCNC(=O)CC[C@@H](NC(=O)CCCNC(=O)[C@@H](CNC(=O)c1ccc([Si](F)(C(C)(C)C)C(C)(C)C)cc1)NC(=O)CN1CCN(CC(=O)O)CCN(CC(=O)O)CCN(CC(=O)O)CC1)C(=O)O)C(=O)O)C(=O)O)C(=O)O)C(=O)N[C@@H](CC(=O)O)C(=O)N[C@@H](Cc1ccccc1)C(N)=O [DOTA-MG-SiFA-47, DOTA-dap(SiFA)-(GABA-γ-glu)4-F11N] | 6.77 ± 1.01 | −1.93 ± 0.08 | 
 | CCCC[C@H](NC(=O)[C@H](Cc1c[nH]c2ccccc12)NC(=O)CNC(=O)[C@H](Cc1ccc(O)cc1)NC(=O)[C@H](C)NC(=O)[C@@H](CNC(=O)c1ccc([Si](F)(C(C)(C)C)C(C)(C)C)cc1)NC(=O)[C@@H](CCC(=O)O)NC(=O)[C@@H](CCC(=O)O)NC(=O)[C@@H](CCC(=O)O)NC(=O)[C@@H](CCC(=O)O)NC(=O)[C@@H](CCC(=O)O)NC(=O)[C@@H](CCC(=O)O)NC(=O)CCC(C(=O)O)N1CCN(CC(=O)O)CCN(CC(=O)O)CCN(CC(=O)O)CC1)C(=O)N[C@@H](CC(=O)O)C(=O)N[C@@H](Cc1ccccc1)C(N)=O (some centres unmarked) [DOTAGA-MG-SiFA-5, DOTAGA-glu-[dap(SiFA)^6]F11N] ({DOTAGA}-[dE][dE][dE][dE][dE][dE][dDap](Benzoyl(4-SiFtBu2))AYGW[Nle]DF-NH2) | 629 ± 48 | −1.71 ± 0.10 | 
 | CCCC[C@H](NC(=O)[C@H](Cc1c[nH]c2ccccc12)NC(=O)CNC(=O)[C@H](Cc1ccc(O)cc1)NC(=O)[C@H](C)NC(=O)[C@@H](CCC(=O)O)NC(=O)[C@@H](CCC(=O)O)NC(=O)[C@@H](CCC(=O)O)NC(=O)[C@@H](CCC(=O)O)NC(=O)[C@@H](CCC(=O)O)NC(=O)[C@@H](CCC(=O)O)NC(=O)[C@@H](CCC(=O)O)NC(=O)[C@@H](CCC(=O)O)NC(=O)[C@@H](CNC(=O)c1ccc([Si](F)(C(C)(C)C)C(C)(C)C)cc1)NC(=O)CCC(C(=O)O)N1CCN(CC(=O)O)CCN(CC(=O)O)CCN(CC(=O)O)CC1)C(=O)N[C@@H](CC(=O)O)C(=O)N[C@@H](Cc1ccccc1)C(N)=O (some centres unmarked) [DOTAGA-MG-SiFA-21, DOTAGA-dap(SiFA)-(glu)2-F11N] ({DOTAGA}-[dDap](Benzoyl(4-SiFtBu2))[dE][dE][dE][dE][dE][dE][dE][dE]AYGW[Nle]DF-NH2) | 55.3 ± 7.8 | −2.84 ± 0.04 | 
 | CCCC[C@H](NC(=O)[C@H](Cc1c[nH]c2ccccc12)NC(=O)CNC(=O)[C@H](Cc1ccc(O)cc1)NC(=O)[C@H](C)NC(=O)[C@@H](CCC(=O)O)NC(=O)[C@@H](CCC(=O)O)NC(=O)[C@@H](CCC(=O)O)NC(=O)[C@@H](CCC(=O)O)NC(=O)[C@@H](CCC(=O)O)NC(=O)[C@@H](CNC(=O)c1ccc([Si](F)(C(C)(C)C)C(C)(C)C)cc1)NC(=O)[C@@H](CCC(=O)O)NC(=O)CCC(C(=O)O)N1CCN(CC(=O)O)CCN(CC(=O)O)CCN(CC(=O)O)CC1)C(=O)N[C@@H](CC(=O)O)C(=O)N[C@@H](Cc1ccccc1)C(N)=O (some centres unmarked) [DOTAGA-MG-SiFA-10, DOTAGA-glu-[dap(SiFA)^1]F11N] ({DOTAGA}-[dE][dDap](Benzoyl(4-SiFtBu2))[dE][dE][dE][dE][dE]AYGW[Nle]DF-NH2) | 56.8 ± 6.4 | −2.22 ± 0.08 | 
 | CCCC[C@H](NC(=O)[C@H](Cc1c[nH]c2ccccc12)NC(=O)CNC(=O)[C@H](Cc1ccc(O)cc1)NC(=O)[C@H](C)NC(=O)CC[C@@H](NC(=O)CC[C@@H](NC(=O)CC[C@@H](NC(=O)CC[C@@H](NC(=O)[C@@H](CNC(=O)c1ccc([Si](F)(C(C)(C)C)C(C)(C)C)cc1)NC(=O)CC[C@@H](NC(=O)CC[C@@H](NC(=O)CC[C@@H](NC(=O)CCC(C(=O)O)N1CCN(CC(=O)O)CCN(CC(=O)O)CCN(CC(=O)O)CC1)C(=O)O)C(=O)O)C(=O)O)C(=O)O)C(=O)O)C(=O)O)C(=O)O)C(=O)N[C@@H](CC(=O)O)C(=O)N[C@@H](Cc1ccccc1)C(N)=O (some centres unmarked) [DOTAGA-MG-SiFA-24, DOTAGA-(γ-glu)2-[dap(SiFA)^2]γ-F11N] ({DOTAGA-d(γGlu)-d(γGlu)-d(γGlu)}-[dDap](Benzoyl(4-SiFtBu2))[d(γGlu)][d(γGlu)][d(γGlu)][d(γGlu)]AYGW[Nle]DF-NH2) | 66.6 ± 4.4 | −2.72 ± 0.05 | 
 | CCCC[C@H](NC(=O)[C@H](Cc1c[nH]c2ccccc12)NC(=O)CNC(=O)[C@H](Cc1ccc(O)cc1)NC(=O)[C@H](C)NC(=O)[C@@H](CCC(=O)O)NC(=O)[C@@H](CCC(=O)O)NC(=O)[C@@H](CCC(=O)O)NC(=O)[C@@H](CCC(=O)O)NC(=O)[C@@H](CCC(=O)O)NC(=O)[C@@H](CCC(=O)O)NC(=O)[C@@H](CNC(=O)c1ccc([Si](F)(C(C)(C)C)C(C)(C)C)cc1)NC(=O)CCC(C(=O)O)N1CCN(CC(=O)O)CCN(CC(=O)O)CCN(CC(=O)O)CC1)C(=O)N[C@@H](CC(=O)O)C(=O)N[C@@H](Cc1ccccc1)C(N)=O (some centres unmarked) [DOTAGA-MG-SiFA-11, DOTAGA-dap(SiFA)-F11N] ({DOTAGA}-[dDap](Benzoyl(4-SiFtBu2))[dE][dE][dE][dE][dE][dE]AYGW[Nle]DF-NH2) | 75.7 ± 10.7 | −2.63 ± 0.08 | 
 | CCCC[C@H](NC(=O)[C@H](Cc1c[nH]c2ccccc12)NC(=O)CNC(=O)[C@H](Cc1ccc(O)cc1)NC(=O)[C@H](C)NC(=O)[C@@H](CCC(=O)O)NC(=O)[C@@H](CCC(=O)O)NC(=O)[C@@H](CNC(=O)c1ccc([Si](F)(C(C)(C)C)C(C)(C)C)cc1)NC(=O)[C@@H](CCC(=O)O)NC(=O)[C@@H](CCC(=O)O)NC(=O)[C@@H](CCC(=O)O)NC(=O)[C@@H](CCC(=O)O)NC(=O)CCC(C(=O)O)N1CCN(CC(=O)O)CCN(CC(=O)O)CCN(CC(=O)O)CC1)C(=O)N[C@@H](CC(=O)O)C(=O)N[C@@H](Cc1ccccc1)C(N)=O (some centres unmarked) [DOTAGA-MG-SiFA-7, DOTAGA-glu-[dap(SiFA)^4]F11N] ({DOTAGA}-[dE][dE][dE][dE][dDap](Benzoyl(4-SiFtBu2))[dE][dE]AYGW[Nle]DF-NH2) | 156 ± 4 | −2.03 ± 0.10 | 
5.6 ± 0.5 | CCCC[C@@H](C(=O)N[C@@H](CC(=O)O)C(=O)N[C@@H](Cc1cccc2ccccc12)C(N)=O)N(C)C(=O)[C@H](Cc1c[nH]c2ccccc12)NC(=O)CNC(=O)[C@H](Cc1ccc(O)cc1)NC(=O)[C@H](C)NC(=O)CNC(=O)CN1CCN(CC(=O)O)CCN(CC(=O)O)CCN(CC(=O)O)CC1 [DOTA-CCK-57, DOTA-Gly-Ala-Tyr-Gly-Trp-(N-Me)Nle-Asp-1-Nal-NH2] ({DOTA}-GAYGW[NMeNle]D[1Nal]-NH2) |  | −1.26 ± 0.08 | 
4.8 ± 1.1 | CCCC[C@@H](C(=O)N[C@@H](CC(=O)O)C(=O)N[C@@H](Cc1cccc2ccccc12)C(N)=O)N(C)C(=O)[C@H](Cc1c[nH]c2ccccc12)NC(=O)CCOCCOCCOCCNC(=O)CC[C@@H](NC(=O)CN1CCN(CC(=O)O)CCN(CC(=O)O)CCN(CC(=O)O)CC1)C(=O)O [DOTA-CCK-63, DOTA-γ-glu-(PEG)2-Trp-(N-Me)Nle-Asp-1-Nal-NH2] ({DOTA-d(γGlu)-PEG3}-W[NMeNle]D[1Nal]-NH2) |  | −3.03 ± 0.09 | < -3
6.7 ± 0.8 | CCCC[C@@H](C(=O)N[C@@H](CC(=O)O)C(=O)N[C@@H](Cc1cccc2ccccc12)C(N)=O)N(C)C(=O)[C@H](Cc1c[nH]c2ccccc12)NC(=O)CCOCCOCCOCCOCCOCCNC(=O)CC[C@@H](NC(=O)CN1CCN(CC(=O)O)CCN(CC(=O)O)CCN(CC(=O)O)CC1)C(=O)O [DOTA-CCK-78, DOTA-γ-glu-(PEG)4-Trp-(N-Me)Nle-Asp-1-Nal-NH2] ({DOTA-d(γGlu)-PEG5}-W[NMeNle]D[1Nal]-NH2) |  | −2.61 ± 0.06 | 

SMILES | IC50 [1, 4] [nM] | IC50 [1, 3] [nM] | logD7.4 (n ≥ 5), ^177Lu-labeled [2] | logD7.4 (n ≥ 5), ^177Lu-labeled ([2]; listed as [^177Lu]Lu-DOTA-CCK-63)
CCCC[C@H](NC(=O)[C@H](Cc1c[nH]c2ccccc12)NC(=O)CNC(=O)[C@H](Cc1ccc(O)cc1)NC(=O)[C@H](C)NC(=O)CC[C@@H](NC(=O)[C@@H](CNC(=O)c1ccc([Si](F)(C(C)(C)C)C(C)(C)C)cc1)NC(=O)CC[C@@H](NC(=O)CC[C@@H](NC(=O)CC[C@@H](NC(=O)CC[C@@H](NC(=O)CC[C@@H](NC(=O)CC[C@H](C(=O)O)N1CCN(CC(=O)O)CCN(CC(=O)O)CCN(CC(=O)O)CC1)C(=O)O)C(=O)O)C(=O)O)C(=O)O)C(=O)O)C(=O)O)C(=O)N[C@@H](CC(=O)O)C(=O)N[C@@H](Cc1ccccc1)C(N)=O [DOTAGA-MG-SiFA-14, DOTAGA-γ-glu-[dap(SiFA)^5]γ-F11N] ({X2-d(γGlu)-d(γGlu)-d(γGlu)-d(γGlu)-d(γGlu)}-[dDap](Benzoyl(4-SiFtBu2))[d(γGlu)]AYGW[Nle]DF-NH2) | 111 ± 13 |  | −2.23 ± 0.07 | 
